Test results as given in the supplement of paper PMC9112550, “Optimization of the antimicrobial peptide Bac7 by deep mutational scanning” (BMC Biology, 2022).

system: Escherichia coli TOP10; assay: shrunken log2 fold change of peptide-encoding DNA abundance (4.5 h post-induction vs induction); higher = less antimicrobial activity (less host growth inhibition); conditions: time post-induction: 4.5 h; library: site-saturation at positions 5, 18, 19, 20
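Note: peptides expressed intracellularly from a pBAD plasmid library in pooled LB shake-flask culture, induced with 0.3% L-arabinose, DNA abundance read by NGS, three biological replicates, DESeq2 with apeglm shrinkage.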

RRIRGRPPRLPRPRPRPKCLPRP and RRIRVRPPRLPRPRPRPMWSPRP are within 0.2 log units of each other in “shrunken log2 fold change” value: -0.0243 for the first, -0.0513 for the second.

First: RRIRYRPPRLPRPRPRPGASPRP
Second: RRIRKRPPRLPRPRPRPPCPPRP
The “shrunken log2 fold change” value of the first is lower: -0.313 for the first, 0.399 for the second.

Going from RRIRLRPPRLPRPRPRPRNEPRP to RRIRTRPPRLPRPRPRPSMFPRP, the “shrunken log2 fold change” value falls from -0.0675 to -0.46.

Compared with RRIRHRPPRLPRPRPRPERLPRP, RRIRLRPPRLPRPRPRPLNGPRP is lower in “shrunken log2 fold change” value: 0.0977 for the first, -0.217 for the second.

First: RRIRARPPRLPRPRPRPPHNPRP
Second: RRIRDRPPRLPRPRPRPNEKPRP
The “shrunken log2 fold change” value of the first is higher: 0.757 for the first, -0.0281 for the second.

First: RRIRIRPPRLPRPRPRPYQNPRP
Second: RRIRMRPPRLPRPRPRPIACPRP
The “shrunken log2 fold change” value of the first is lower: -1.1 for the first, 0.106 for the second.

RRIRDRPPRLPRPRPRPRSVPRP and RRIRGRPPRLPRPRPRPWYQPRP are within 0.2 log units of each other in “shrunken log2 fold change” value: 0.165 for the first, 0.0417 for the second.

RRIRLRPPRLPRPRPRPKWGPRP and RRIRPRPPRLPRPRPRPADKPRP are within 0.2 log units of each other in “shrunken log2 fold change” value: 0.0532 for the first, 0.0949 for the second.

Going from RRIRWRPPRLPRPRPRPMYSPRP to RRIRTRPPRLPRPRPRPFSEPRP, the “shrunken log2 fold change” value rises from -0.612 to -0.0338.

First: RRIRTRPPRLPRPRPRPHDHPRP
Second: RRIRQRPPRLPRPRPRPGEMPRP
The “shrunken log2 fold change” value of the first is lower: -0.257 for the first, 0.0469 for the second.

RRIRPRPPRLPRPRPRPWMWPRP and RRIRRRPPRLPRPRPRPFLHPRP are within 0.2 log units of each other in “shrunken log2 fold change” value: 0.0296 for the first, 0.0267 for the second.

RRIRMRPPRLPRPRPRPIMCPRP and RRIRVRPPRLPRPRPRPHRYPRP are within 0.2 log units of each other in “shrunken log2 fold change” value: -0.19 for the first, -0.348 for the second.

First: RRIRKRPPRLPRPRPRPRDIPRP
Second: RRIRCRPPRLPRPRPRPPWCPRP
The “shrunken log2 fold change” value of the first is higher: 0.246 for the first, -0.123 for the second.

First: RRIRNRPPRLPRPRPRPAYHPRP
Second: RRIRCRPPRLPRPRPRPHPWPRP
The “shrunken log2 fold change” value of the first is lower: -0.385 for the first, -0.158 for the second.

Going from RRIRGRPPRLPRPRPRPNRAPRP to RRIRYRPPRLPRPRPRPPSSPRP, the “shrunken log2 fold change” value falls from 0.43 to -0.154.

Compared with RRIRMRPPRLPRPRPRPAFRPRP, RRIRTRPPRLPRPRPRPPSSPRP is lower in “shrunken log2 fold change” value: 0.214 for the first, -0.00871 for the second.

RRIRPRPPRLPRPRPRPRMNPRP and RRIRLRPPRLPRPRPRPDNEPRP are within 0.2 log units of each other in “shrunken log2 fold change” value: 0.0159 for the first, -0.162 for the second.

First: RRIRPRPPRLPRPRPRPCPHPRP
Second: RRIRVRPPRLPRPRPRPMSWPRP
The “shrunken log2 fold change” value of the first is lower: -0.81 for the first, 0.0132 for the second.

Compared with RRIRHRPPRLPRPRPRPEAIPRP, RRIRFRPPRLPRPRPRPRMIPRP is lower in “shrunken log2 fold change” value: -0.0296 for the first, -0.517 for the second.

Going from RRIRIRPPRLPRPRPRPNHYPRP to RRIRCRPPRLPRPRPRPKLMPRP, the “shrunken log2 fold change” value rises from -0.492 to -0.0168.

RRIRLRPPRLPRPRPRPKTQPRP and RRIRPRPPRLPRPRPRPDVPPRP are within 0.2 log units of each other in “shrunken log2 fold change” value: -0.189 for the first, -0.0575 for the second.

Going from RRIRVRPPRLPRPRPRPIYVPRP to RRIRQRPPRLPRPRPRPVWNPRP, the “shrunken log2 fold change” value falls from -0.0279 to -0.344.

Going from RRIRPRPPRLPRPRPRPPDLPRP to RRIRQRPPRLPRPRPRPVHKPRP, the “shrunken log2 fold change” value falls from 0.366 to 0.0383.

Compared with RRIRYRPPRLPRPRPRPVFTPRP, RRIRFRPPRLPRPRPRPYEIPRP is higher in “shrunken log2 fold change” value: -0.574 for the first, -0.241 for the second.

RRIRWRPPRLPRPRPRPYWRPRP and RRIRERPPRLPRPRPRPHWPPRP are within 0.2 log units of each other in “shrunken log2 fold change” value: 0.00194 for the first, 0.132 for the second.

Going from RRIRFRPPRLPRPRPRPNYNPRP to RRIRIRPPRLPRPRPRPFTRPRP, the “shrunken log2 fold change” value rises from -1.12 to 0.114.

RRIRHRPPRLPRPRPRPTQAPRP and RRIRGRPPRLPRPRPRPHTAPRP are within 0.2 log units of each other in “shrunken log2 fold change” value: 0.255 for the first, 0.149 for the second.

First: RRIRRRPPRLPRPRPRPYYIPRP
Second: RRIRMRPPRLPRPRPRPCRAPRP
The “shrunken log2 fold change” value of the first is lower: -0.584 for the first, 0.496 for the second.

Compared with RRIRFRPPRLPRPRPRPHFHPRP, RRIRVRPPRLPRPRPRPNLVPRP is higher in “shrunken log2 fold change” value: -0.75 for the first, -0.2 for the second.

RRIRERPPRLPRPRPRPIKTPRP and RRIRGRPPRLPRPRPRPQSVPRP are within 0.2 log units of each other in “shrunken log2 fold change” value: -0.139 for the first, -0.199 for the second.

First: RRIRWRPPRLPRPRPRPTCYPRP
Second: RRIRFRPPRLPRPRPRPQKHPRP
The “shrunken log2 fold change” value of the first is higher: -0.0755 for the first, -0.327 for the second.

First: RRIRCRPPRLPRPRPRPQYRPRP
Second: RRIRARPPRLPRPRPRPWNCPRP
The “shrunken log2 fold change” value of the first is lower: -2.05 for the first, 0.132 for the second.

RRIRLRPPRLPRPRPRPFYGPRP and RRIRNRPPRLPRPRPRPYNEPRP are within 0.2 log units of each other in “shrunken log2 fold change” value: -0.157 for the first, -0.11 for the second.

RRIRSRPPRLPRPRPRPNLLPRP and RRIRARPPRLPRPRPRPTYSPRP are within 0.2 log units of each other in “shrunken log2 fold change” value: -0.0918 for the first, -0.204 for the second.

RRIRSRPPRLPRPRPRPPNCPRP and RRIRHRPPRLPRPRPRPNWRPRP are within 0.2 log units of each other in “shrunken log2 fold change” value: 0.231 for the first, 0.0926 for the second.

RRIRGRPPRLPRPRPRPCKKPRP and RRIRWRPPRLPRPRPRPDRLPRP are within 0.2 log units of each other in “shrunken log2 fold change” value: 0.00863 for the first, -0.0216 for the second.

First: RRIRVRPPRLPRPRPRPDSFPRP
Second: RRIRFRPPRLPRPRPRPFCVPRP
The “shrunken log2 fold change” value of the first is higher: -0.0784 for the first, -0.722 for the second.

RRIRGRPPRLPRPRPRPTYTPRP and RRIRKRPPRLPRPRPRPLHQPRP are within 0.2 log units of each other in “shrunken log2 fold change” value: 0.249 for the first, 0.393 for the second.

First: RRIRRRPPRLPRPRPRPQRRPRP
Second: RRIRRRPPRLPRPRPRPYPGPRP
The “shrunken log2 fold change” value of the first is higher: 0.482 for the first, -0.123 for the second.

First: RRIRWRPPRLPRPRPRPKAGPRP
Second: RRIRIRPPRLPRPRPRPTPMPRP
The “shrunken log2 fold change” value of the first is higher: 0.538 for the first, -0.102 for the second.

Going from RRIRFRPPRLPRPRPRPTWGPRP to RRIRFRPPRLPRPRPRPTYSPRP, the “shrunken log2 fold change” value falls from 0.132 to -0.209.

RRIRVRPPRLPRPRPRPWHVPRP and RRIRLRPPRLPRPRPRPLSQPRP are within 0.2 log units of each other in “shrunken log2 fold change” value: -0.0616 for the first, 0.00591 for the second.

RRIRTRPPRLPRPRPRPAEHPRP and RRIRDRPPRLPRPRPRPHIVPRP are within 0.2 log units of each other in “shrunken log2 fold change” value: -0.0944 for the first, -0.146 for the second.

Going from RRIRLRPPRLPRPRPRPRILPRP to RRIRGRPPRLPRPRPRPECYPRP, the “shrunken log2 fold change” value rises from -0.211 to 0.25.

Compared with RRIRVRPPRLPRPRPRPAHAPRP, RRIRWRPPRLPRPRPRPLGMPRP is lower in “shrunken log2 fold change” value: 0.068 for the first, -0.156 for the second.

Going from RRIRGRPPRLPRPRPRPSTTPRP to RRIRARPPRLPRPRPRPPSKPRP, the “shrunken log2 fold change” value falls from 0.875 to 0.491.

Going from RRIRIRPPRLPRPRPRPKTHPRP to RRIRKRPPRLPRPRPRPSQSPRP, the “shrunken log2 fold change” value rises from -0.203 to 0.28.

Compared with RRIRWRPPRLPRPRPRPMLEPRP, RRIRVRPPRLPRPRPRPFPLPRP is lower in “shrunken log2 fold change” value: -0.0685 for the first, -0.566 for the second.

RRIRVRPPRLPRPRPRPIEGPRP and RRIRQRPPRLPRPRPRPMYWPRP are within 0.2 log units of each other in “shrunken log2 fold change” value: -0.0117 for the first, 0.0971 for the second.

Compared with RRIRARPPRLPRPRPRPKQFPRP, RRIRPRPPRLPRPRPRPVKWPRP is lower in “shrunken log2 fold change” value: 0.3 for the first, 0.00231 for the second.

RRIRNRPPRLPRPRPRPQWSPRP and RRIRERPPRLPRPRPRPVAKPRP are within 0.2 log units of each other in “shrunken log2 fold change” value: 0.129 for the first, 0.197 for the second.

RRIRIRPPRLPRPRPRPREIPRP and RRIRYRPPRLPRPRPRPAKSPRP are within 0.2 log units of each other in “shrunken log2 fold change” value: -0.0162 for the first, -0.156 for the second.

Compared with RRIRARPPRLPRPRPRPWPPPRP, RRIRYRPPRLPRPRPRPQYRPRP is lower in “shrunken log2 fold change” value: 0.887 for the first, -0.148 for the second.

RRIRDRPPRLPRPRPRPYEDPRP and RRIRPRPPRLPRPRPRPKTHPRP are within 0.2 log units of each other in “shrunken log2 fold change” value: 0.0115 for the first, -0.0419 for the second.

For RRIRCRPPRLPRPRPRPWMPPRP, the “shrunken log2 fold change” value was -0.178.
